The IC50 is the concentration needed to halve the response being measured. Low readings indicate higher potency, high ones lower potency.

The source of these data is PMC3723849 (PLoS ONE, 2013).

Experiment [1] concerns the target T1, His-tagged PSMA (PSMA-His6), soluble ectodomain of prostate-specific membrane antigen (human, UniProt Q04609 44-750).
T1 construct: prostate-specific membrane antigen (PSMA), human, soluble ectodomain; also called soluble PSMA; poly-histidine tagged PSMA; source: bought: R&D Systems
The experiment can be described thus: AlphaScreen or HTRF; competition: 563-biotin on streptavidin donor beads, PSMA-His6 on nickel chelate acceptor beads, unlabeled peptide at various concentrations; ambient temperature; 25 mM HEPES, 100 mM NaCl, pH 7.4; IC50 used to approximate KD. The conditions noted are these: both partners purified. (In general: Bead proximity is the source of the signal in Alpha formats.)

The target of experiment [2] is T1, His-tagged PSMA (PSMA-His6), soluble …. Put plainly: immunostaining of cells or tissue; competition: LNCaP cells pre-incubated with soluble PSMA-His6 (100 nM, 2 h, 37°C) before the phage clones were added; loss of phage staining read by confocal microscopy (rfu in ten cells). The note with it: both partners purified.

No end group written: not given here. *: point of attachment. Acm = CC(=O)NC*

T1 sequence (Q04609 44-750): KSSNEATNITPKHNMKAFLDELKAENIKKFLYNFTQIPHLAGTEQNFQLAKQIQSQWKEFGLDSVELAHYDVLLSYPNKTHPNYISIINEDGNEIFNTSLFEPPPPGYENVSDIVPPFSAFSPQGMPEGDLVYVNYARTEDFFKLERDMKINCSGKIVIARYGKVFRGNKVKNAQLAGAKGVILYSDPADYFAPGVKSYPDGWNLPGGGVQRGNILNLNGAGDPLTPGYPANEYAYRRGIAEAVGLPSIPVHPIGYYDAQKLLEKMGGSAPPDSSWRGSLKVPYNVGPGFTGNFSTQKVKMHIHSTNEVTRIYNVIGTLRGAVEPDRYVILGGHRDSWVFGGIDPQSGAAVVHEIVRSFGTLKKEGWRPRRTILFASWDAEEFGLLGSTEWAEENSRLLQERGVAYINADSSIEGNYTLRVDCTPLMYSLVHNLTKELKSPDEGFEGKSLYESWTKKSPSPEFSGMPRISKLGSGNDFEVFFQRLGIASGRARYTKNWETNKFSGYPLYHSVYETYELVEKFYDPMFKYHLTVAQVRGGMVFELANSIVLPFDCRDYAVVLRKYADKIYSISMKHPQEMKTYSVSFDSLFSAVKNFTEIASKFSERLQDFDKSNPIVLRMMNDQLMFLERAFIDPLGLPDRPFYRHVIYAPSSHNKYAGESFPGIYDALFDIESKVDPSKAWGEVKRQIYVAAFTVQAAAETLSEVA

B1: Peptide 565 (peptide)
peptide: ARMFLLFLMRC(Acm)IGC(Acm)Y
modifications: not fully specified
notes: 15-mer from phage clone C; Made on Rink amide resin, so a C-terminal amide is to be expected (surmised); source: synthetic peptide (HPLC purified)
B1 gave a half-inhibitory concentration (IC50) in experiment [1] above 4830 nM.

B2: Phage clone 2 (round 2 of panning) (peptide)
chain: GTAVASRVYSLHSLM
notes: source: phage clone from the fUSE5 15-mer library, amplified in E. coli K91BluKan; not shown: bacteriophage coat protein (fd phage, fUSE5 library), C-terminal, kept
As for B2, the binding result in experiment [2] is given as “binds”.

B3: Peptide 564 (peptide)
peptide: LSFFSC(Acm)WLRRSFSLT
notes: 15-mer from phage clone G; Made on Rink amide resin, so a C-terminal amide is to be expected (surmised); source: synthetic peptide (HPLC purified)
Molecule B3 registered an IC50 in experiment [1] of 1720 nM.
